Numbering of substitutions follows the chain as printed.
B1: unnamed (protein)
chain: MRPPQCLLHTPSLASPLLLLLLWLLGGGVGAEGREDAELLVTVRGGRLRGIRLKTPGGPVSAFLGIPFAEPPMGPRRFLPPEPKQPWSGVVDATTFQSVCYQYVDTLYPGFEGTEMWNPNRELSEDCLYLNVWTPYPRPTSPTPVLVWIYGGGFYSGASSLDVYDGRFLVQAERTVLVSMNYRVGAFGFLALPGSREAPGNVGLLDQRLALQWVQENVAAFGGDPTSVTLFGESAGAASVGMHLLSPPSRGLFHRAVLQSGAPNGPWATVGMGEARRRATQLAHLVGCPPGGTGGNDTELVACLRTRPAQVLVNHEAHVLPQESVFRFSFVPVVDGDFLSDTPEALINAGDFHGLQVLVGVVKDEGSYFLVYGAPGFSKDNESLISRAEFLAGVRVGVPQVSDLAAEAVVLHYTDWLHPEDPARLREALSDVVGDHNVVCPVAQLAGRLAAQGARVYAYVFEHRASTLSWPLWMGVPHGYEIEFIFGIPLDPSRNYTAEEKIFAQRLMRYWANFARTGDPNEPRDPKAPQWPPYTAGAQQYVSLDLRPLEVRRGLRAQACAFWNRFLPKLLSATDTLDEAERQWKAEFHRWSSYMVHWKNQFDHYSKQDRCSDL
B2: unnamed (protein)
chain: B1 chain with E316A, A317W
B3: unnamed (protein)
chain: B1 chain with Y103A, E316A, A317W
B4: unnamed (protein)
chain: B1 chain with Y103A, Y155A, A317W
B5: unnamed (protein)
chain: B1 chain with W117A, A317W
B6: unnamed (protein)
chain: B1 chain with A317W, Y368F
B7: unnamed (protein)
chain: B1 chain with A317W, Y368A
B8: unnamed (protein)
chain: B1 chain with Y103A, E316A

Substrate: Acetylcholine
Settings: pH 8; 27 °C

**Q.** B1 was tested. Which Km did it give?
**A.** The Km was 200 µM.

**Q.** What about the kcat of the same protein?
**A.** The kcat was 5330 s⁻¹.

**Q.** And the kcat/Km?
**A.** The kcat/Km was 2.67e+07 M⁻¹ s⁻¹.

**Q.** For B2, which Km is on record?
**A.** The Km was 280 µM.

**Q.** And the kcat?
**A.** Its kcat is 6330 s⁻¹.

**Q.** And the kcat/Km?
**A.** The kcat/Km was 2.26e+07 M⁻¹ s⁻¹.

**Q.** With B3 as the protein, how does the Km read?
**A.** The Km was 240 µM.

**Q.** What about the kcat of the same protein?
**A.** Its kcat is 6670 s⁻¹.

**Q.** And the kcat/Km?
**A.** Its kcat/Km is 2.78e+07 M⁻¹ s⁻¹.

**Q.** What does the source list for B4?
**A.** Km: 70 µM; kcat: 4170 s⁻¹; kcat/Km: 5.95e+07 M⁻¹ s⁻¹

**Q.** Which results are given for B5?
**A.** Km: 93000 µM; kcat: 1330 s⁻¹; kcat/Km: 14300 M⁻¹ s⁻¹

**Q.** For B6, which Km is on record?
**A.** The Km was 160 µM.

**Q.** And the kcat?
**A.** The kcat was 6670 s⁻¹.

**Q.** What about the kcat/Km of the same protein?
**A.** Its kcat/Km is 4.17e+07 M⁻¹ s⁻¹.

**Q.** For B7, which Km is on record?
**A.** The Km was 100 µM.

**Q.** What about the kcat of the same protein?
**A.** The kcat was 1670 s⁻¹.

**Q.** What about the kcat/Km of the same protein?
**A.** The kcat/Km was 1.67e+07 M⁻¹ s⁻¹.

**Q.** With B8 as the protein, how does the Km read?
**A.** The Km was 300 µM.

**Q.** What about the kcat of the same protein?
**A.** The kcat was 3330 s⁻¹.

**Q.** What about the kcat/Km of the same protein?
**A.** Its kcat/Km is 1.11e+07 M⁻¹ s⁻¹.

Reference: the PETadex activity labels (doi:10.1016/s0021-9258(17)37371-4)
